1 substance from paper PMC9045261 can be followed below.

This assay deals with OXAVL02 (OXA-1089). The assay can be described thus: SEC-MALS; active SEC fractions dialyzed against PBS (Na2HPO4 10 mM, KH2PO4 1.8 mM, NaCl 137 mM, KCl 2.7 mM, pH 7.4); 100 uL at 0.5 to 1 mg/mL on Superdex 200 Increase 10/300; UV, MALS and refractive index detectors; monomer-dimer equilibrium. (Size exclusion chromatography separates by hydrodynamic size, large species first.)

The term stoichiometry N denotes a count of units in the complex or per binding partner.

In turn, OXAVL02 (OXA-1089) (enzyme) yielded a stoichiometry N of 2.
